Experimental data: US20240294622A1 (SUZHOU TRANSCENTA THERAPEUTICS, published 2024)

T1: human COCO (R&D) (human, UniProt Q8N907 23-189, limits assumed)
T1 sequence (looked up): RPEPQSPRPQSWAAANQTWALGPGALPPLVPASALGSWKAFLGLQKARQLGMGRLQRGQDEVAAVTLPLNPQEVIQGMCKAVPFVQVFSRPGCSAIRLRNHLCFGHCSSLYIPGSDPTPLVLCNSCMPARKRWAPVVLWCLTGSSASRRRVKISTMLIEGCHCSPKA

T2: HGREM1-His (ACRO) (human, UniProt O60565 25-184)
T2 construct: Lys25-Asp184 of NP_037504 with C-terminal polyhistidine tag (ACRO GR1-H52H3); they are put here; also called hGREM1 (ACRO); human gremlin (ACRO)
T2 sequence: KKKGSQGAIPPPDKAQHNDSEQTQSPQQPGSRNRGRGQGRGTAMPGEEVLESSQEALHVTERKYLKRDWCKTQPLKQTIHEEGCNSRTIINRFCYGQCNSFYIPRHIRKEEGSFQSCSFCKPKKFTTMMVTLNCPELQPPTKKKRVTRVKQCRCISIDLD

T3: Mouse Gremlin-His (R&D) (mouse, UniProt O70326 25-184)
T3 construct: Lys25-Asp184 with 10xHis, R&D 956-GR; also called mouse gremlin (R&D); mGREM1
T3 sequence: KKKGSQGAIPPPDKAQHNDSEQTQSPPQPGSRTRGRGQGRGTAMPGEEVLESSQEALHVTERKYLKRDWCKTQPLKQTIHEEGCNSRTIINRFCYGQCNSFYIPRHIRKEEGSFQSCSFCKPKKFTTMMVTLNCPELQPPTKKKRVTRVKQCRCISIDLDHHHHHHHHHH


Key:
human COCO (R&D) = target: T1, human COCO (R&D); experiment: ELISA on coated human COCO (R&D, 0.5ug/ml), anti-mouse IgG-HRP
Protocol: In addition, the specificity of the binding of 14E3 and a benchmark antibody was assessed with ELISA. Briefly, clear polystyrene plates (BEAVER) were coated with 100 μl/well of a […] hGREM1 (ACRO), or human gremlin-2 (R&D), human COCO (R&D) and human DAN protein (R&D) in high pH coating buffer overnight at 4° C. Then the plates were washed once on an automatic plate washer using PBS+0.1% Tween 20 (Sigma). 100 μl of block solution consisting of PBS+1% BSA+1% normal goat serum+0.5% Tween 20 (Sigma) was added to each well and incubated at room temperature for 2 hours. Then 100 ul of antibodies in antibody dilution buffer containing PBS+1% BSA+1% normal goat serum+0.01% Tween 20 starting from 2 μg/ml and then 5 fold serial dilution were added to each well of the plate and incubated for 1 hours at room temperature. Afterward the plates were washed three times with 200 ul of PBS+0.1% Tween20 followed by adding 100 μl/well 1:10000 Goat anti mouse IgG-HRP (Abcam), and incubate for 1 hour at room temperature. They were then washed 3× with PBS+0.1% Tween20. Finally, 100 µl/well of TMB (Pierce) was added to each well and after 5 minutes add 50 ul of stop solution to each well. The plates were read on a Multiscan FC microplate reader (Thermo Scientific) at […].

HGREM1-His (ACRO) [1] = target: T2, HGREM1-His (ACRO); experiment: blocking ELISA, Human Gremlin-1 binding to BMP7; column Percentage
Protocol: In addition, the ability of serial dilutions of antibodies provided herein to block Gremlin binding to human BMP2/4/7 was also examined via ELISA. Plates were coated with recombinant human BMP2/4/7 (0.5 μg/ml) overnight and then serial dilutions of antibodies were incubated with 1 μg/ml of human Gremlin-his modified for 1 h at RT before this complex was added to coated plates and allowed to incubate for an additional hour at RT. The plates were then washed and added with anti-his HRP (GenScript). Plates were then developed with a TMB solution and stopped by adding stop solution. The plates were read on a plate reader at 450 nm. […] The chimeric anti-gremlin 1 antibodies (69H5-chi) and chimeric anti-gremlin 1 antibodies (22F1-chi) also can inhibit the binding of gremlin to BMP2 and BMP4 (see, FIG. 3E and FIG. 3F). The chimeric anti-gremlin 1 antibodies (56C11-chi) can inhibit the binding of gremlin to BMP2 (see, FIG. 3E).

HGREM1-His (ACRO) [2] = target: T2, HGREM1-His (ACRO); experiment: competition ELISA, Gremlin-his binding to coated BMP7
Mouse Gremlin-His (R&D) = target: T3, Mouse Gremlin-His (R&D); experiment: ELISA, coated mouse gremlin (R&D)
Protocol: Clear polystyrene plates (BEAVER) were coated with 100 μl/well of a […] hGREM1 (ACRO) and mouse gremlin (R&D) in high pH coating buffer overnight at 4° C. Then the plates were washed once on an automatic plate washer using PBS+0.1% Tween 20 (Sigma). 100 μl of block solution consisting of PBS+1% BSA+1% normal goat serum+0.5% Tween 20 (Sigma) was added to each well and incubated at room temperature for 2 hours. Then 100 μl of antibodies in antibody dilution buffer containing PBS+1% BSA+1% normal goat serum+0.01% Tween 20 starting from 2 μg/ml and then serial dilutions were added to each well of the plate and incubated for 1 hours at room temperature. Afterward the plates were washed three times with 200 μl of PBS+0.1% Tween20 followed by adding 100 μl/well 1:10000 Goat anti mouse IgG-HRP (abcam), and incubate for 1 hour at room temperature. They were then washed 3× with PBS+0.1% Tween20. Finally, 100 µl/well of TMB (Pierce) was added to each well and after several minutes add 50 μl of stop solution to each well. The plates were read on a Multiscan FC microplate reader (Thermo Scientific) at […].

HGREM1-His (ACRO) [3] = target: T2, HGREM1-His (ACRO); experiment: ELISA on coated Gremlin-his; unit from the axis Ab(nM)
Protocol: Clear polystyrene plates (BEAVER) were coated with 100 μl/well of a 0.5 μg/ml human gremlin (ACRO) and DAN (Sinobiological) in high pH coating buffer overnight at 4° C. Then the plates were washed once on an automatic plate washer using PBS+0.1% Tween 20 (Sigma). 100 μl of block solution consisting of PBS+1% BSA+1% normal goat serum+0.5% Tween 20 (Sigma) was added to each well and incubated at room temperature for 2 hours. Then 100 ul of antibodies (hybridoma or chimeric antibody 36F5, chimeric antibody 67G11, chimeric antibody 42B9) in antibody dilution buffer containing PBS+1% BSA+1% normal goat serum+0.01% Tween 20 starting from 2 μg/ml (13.33 nM) and then 4 fold serial dilution were added to each well of the plate and incubated for 1 hours at room temperature. Afterward the plates were washed three times with 200 ul of PBS+0.1% Tween20 followed by adding 100 μl/well 1:10000 Goat anti mouse IgG-HRP or mouse anti-human IgG-HRP (abcam), and incubate for 1 hour at room temperature. They were then washed 3× with PBS+0.1% Tween20. Finally, 100 μl/well of TMB (InnoReagents) was added to each well and after 2 minutes add 50 ul of stop solution to each well. The plates were read on a Multiscan FC microplate reader (Thermo Scientific) at 450 nm.

binding result (human COCO (R&D)) | IC50 (HGREM1-His (ACRO) [1]) | maximal blocking percentage (HGREM1-His (ACRO) [2]) | EC50 (Mouse Gremlin-His (R&D)) | EC50 (HGREM1-His (ACRO) [3]) | Binder
no binding (tested: 1 ug/ml) |  |  |  |  | 14E3 (antibody, V domains shown, mouse hybridoma antibody; also called hybridoma 14E3; anti-gremlin1 antibody 14E3) VH: QIQLVQSGPELKKPGETVKISCKTSGSTFTTYGMAWMKQAPGKGLTWMGWINTLSGEPTYADDFKGRFAFSLKTSANTAYLQINNLKNEDAATYFCAREPMDYWGQGTSVIVSS VL: not shown
 | 0.683 µg/mL | ≥ 50% | 4.56 ng/mL | 0.0309 nM | 36F5 (antibody, V domains shown, mouse hybridoma antibody; also called hybridoma 36F5) VH: QVQLQQSGAELARPGASVKLSCKASGYSFTSSGIGWVKQRSGQGLEWIGEIYPRSGNTYNNEKFKGKATLTADKSSSTVYMELRSLTSEDSAVYFCVREAYSHHYYAMDYWGQGTSVTVFS VL: DVLMTQTPLSLPVSLGGQASISCRSSQSLLHSNGNTYLEWYLQKPGQSPKLLIYKVSNRFSGVPDRLSGSGSGTDFTLKISRVEAEDLGVYYCFQGSHVPFTFGSGTKLEIN
